Experimental findings from paper PMC7643343, “The intrinsically disordered region of GCE protein adopts a more fixed structure by interacting with the LBD of the nuclear receptor FTZ-F1” (Cell Communication and Signaling : CCS, 2020) are described below.

In this test the target is T1, ligand binding domain of the nuclear receptor Fushi Tarazu factor-1 (LBD FTZ-F1) (Drosophila, UniProt P33244 786-1027, 15N-labelled in the experiment with the peptide; unlabelled in the experiment with GCEC).
T1 construct: cDNA synthesised (Gene Art); Cloned into pET-15b; residues left by the thrombin site are not described; Purified protein runs as a 26.5 kDa globular protein; also called FTZ-F1 LBD; LDB FTZ-F1 (786-1027); source: E. coli BL21(DE3), soluble fraction, purified (Ni-NTA, thrombin, second IMAC, SEC on Superdex75)
T1 sequence (looked up): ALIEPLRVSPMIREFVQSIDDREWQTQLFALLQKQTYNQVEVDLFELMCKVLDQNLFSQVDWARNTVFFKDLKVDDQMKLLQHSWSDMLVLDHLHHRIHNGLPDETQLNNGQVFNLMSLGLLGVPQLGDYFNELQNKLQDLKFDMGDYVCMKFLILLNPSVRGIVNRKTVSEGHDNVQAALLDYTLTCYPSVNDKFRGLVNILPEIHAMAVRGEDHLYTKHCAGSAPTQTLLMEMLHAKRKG
As to the kind of experiment: NMR titration; 1H-15N HSQC chemical shift perturbation, 15N-labelled LBD FTZ-F1 after incubation with the … peptide (concentration set by its solubility limit), buffer F with 10% D2O, 22 °C, 800 MHz. As to conditions: both partners purified.

B1: 9-residue GCEC peptide (GCE^PEP) (peptide)
peptide: LRLIQNLQK
notes: stretch of the C-terminal region of GCE, D. melanogaster, with the novel NR-box (LIXXL motif; LIQNL); source: synthetic peptide (PSL GmbH, Heidelberg)
As to B1, the binding result is on record as “binds”.
